Binding result and Kd data for five molecules are collected here from PMC12231599, “Elucidation of multiple high-resolution states of human MutSβ by cryo-EM reveals interplay between ATP/ADP binding and heteroduplex DNA recognition”.

Series [1] has as its target T1, MSH2 (MutSβ subunit);MSH3 (MutSβ subunit) (Homo sapiens;Homo sapiens, UniProt P43246;P20585 1-934;1-1137, |). The experiment in a line: FRET (DNA bending); no ATP; 100 nM protein; SPR: 25 mM HEPES pH 7.5, 150 mM KCl, 5 mM MgCl2, 1 mM DTT, 0.05% Tween, 0.05% BSA, 25 C; FRET: 50 mM HEPES pH 7.0, 200 mM NaCl, 1 mM MgCl2, 1 mM DTT, 0.05% Tween-20, RT. The settings on record: protein: recombinant;recombinant, tags: none;none, copies: 1;1, label: Cy5 strand 1, Cy3 strand 2, 5' digoxigenin, blunt.

The target in series [2] is T1, MSH2 (MutSβ subunit);MSH3 (MutSβ …). Put plainly: SPR (steady state); no ATP; 5 mM Mg2+; SPR: 25 mM HEPES pH 7.5, 150 mM KCl, 5 mM MgCl2, 1 mM DTT, 0.05% Tween, 0.05% BSA, 25 C; FRET: 50 mM HEPES pH 7.0, 200 mM NaCl, 1 mM MgCl2, 1 mM DTT, 0.05% Tween-20, RT. Conditions: protein: recombinant;recombinant; tags: none;none; copies: 1;1; label: 5' biotin; blunt.
For series [3] the target is unchanged. Put plainly: SPR (steady state); 5 mM Mg2+; no ATP; SPR: 25 mM HEPES pH 7.5, 150 mM KCl, 5 mM MgCl2, 1 mM DTT, 0.05% Tween, 0.05% BSA, 25 C; FRET: 50 mM HEPES pH 7.0, 200 mM NaCl, 1 mM MgCl2, 1 mM DTT, 0.05% Tween-20, RT. The settings on record: protein: recombinant;recombinant; tags: none;none; copies: 1;1; label: 5' biotin; blunt, (CAG)2 6-nt extrahelical loop in strand 1.

For series [4] the target is unchanged. The experiment in a line: SPR (kinetic, preferred by authors); 5 mM Mg2+; no ATP; SPR: 25 mM HEPES pH 7.5, 150 mM KCl, 5 mM MgCl2, 1 mM DTT, 0.05% Tween, 0.05% BSA, 25 C; FRET: 50 mM HEPES pH 7.0, 200 mM NaCl, 1 mM MgCl2, 1 mM DTT, 0.05% Tween-20, RT. The settings on record: protein: recombinant;recombinant; tags: none;none; copies: 1;1; label: 5' biotin; blunt, (CAG)2 6-nt extrahelical loop in strand 1.

B1: 70 bp (CAG)1 loop DNA (FRET) (dsDNA)
DNA 1: CACACGTTCCGAGATATCCTAGCAAGTGATCAGCGTCTATGTAGCTCAAGAGTTCGACTCAGCCTACACCGAG
DNA 2: CTCGGTGTAGGCTGAGTCGAACTCTTGAGCTACATAGACGATCACTTGCTAGGATATCTCGGAACGTGTG
modifications: internal dye-dT
On to B1, for which the binding result in series [1] (3-nt CAG loop in strand 1) was “binds”.

B2: 70 bp (CAG)2 loop DNA (FRET) (dsDNA)
DNA 1: CACACGTTCCGAGATATCCTAGCAAGTGATCAGCAGCGTCTATGTAGCTCAAGAGTTCGACTCAGCCTACACCGAG
DNA 2: CTCGGTGTAGGCTGAGTCGAACTCTTGAGCTACATAGACGATCACTTGCTAGGATATCTCGGAACGTGTG
modifications: internal dye-dT
For the molecule B2, the binding result in series [1] (6-nt (CAG)2 loop in strand 1) is “binds”.

B3: 70 bp (CAG)4 loop DNA (FRET) (dsDNA)
DNA 1: CACACGTTCCGAGATATCCTAGCAAGTGATCAGCAGCAGCAGCGTCTATGTAGCTCAAGAGTTCGACTCAGCCTACACCGAG
DNA 2: CTCGGTGTAGGCTGAGTCGAACTCTTGAGCTACATAGACGATCACTTGCTAGGATATCTCGGAACGTGTG
modifications: internal dye-dT
For B3, the binding result in series [1] (12-nt (CAG)4 loop in strand 1) was “binds”.

B4: 61 bp homoduplex, biotinylated (SPR) (dsDNA)
DNA 1: CTGAAGCTTAGCTTAGGATCATCGAGGATCAGCTCGGTGCAATTCAGCGGTACCCAATTC
DNA 2: GAATTGGGTACCGCTGAATTGCACCGAGCTGATCCTCGATGATCCTAAGCTAAGCTTCAG
What is called Kd is the constant that tells how readily two partners part at equilibrium. Take B4: the Kd in series [2] is 3.32 nM.

B5: 61 bp (CAG)2 loop DNA, biotinylated (SPR) (dsDNA)
DNA 1: CTGAAGCTTAGCTTAGGATCATCGAGGATCCAGCAGAGCTCGGTGCAATTCAGCGGTACCCAATTC
DNA 2: GAATTGGGTACCGCTGAATTGCACCGAGCTGATCCTCGATGATCCTAAGCTAAGCTTCAG
Take B5: the Kd in series [3] was determined as 0.265 nM; in series [4], 0.0672 nM.
